Measurements taken from patent publication US20250250357A1 (NANJING ZAIMING PHARMACEUTICAL, published 2025).

Columns and labels:
[1] = target: T1, human MSLN-FL-his protein (human, UniProt Q13421 296-580); experiment: ELISA, coated antigen; antibody 0.1 nM
T1 construct: also called human MSLN full-length protein; hMSLN-FL-his; not shown: His tag

[2] = target: T2, human MSLN-R1-his protein (human, UniProt Q13421 296-390); experiment: ELISA, coated antigen; antibody 10 nM
T2 construct: also called human MSLN-R1 protein; hMSLN-R1-his; not shown: His tag
T2 sequence (Q13421 other isoform, or with tags, fused parts or gaps): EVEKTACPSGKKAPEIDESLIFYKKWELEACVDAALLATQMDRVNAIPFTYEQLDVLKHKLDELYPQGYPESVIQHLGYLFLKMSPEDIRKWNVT

[3] = target: T3, human MSLN-R2-his protein (human, UniProt Q13421 391-486); experiment: ELISA, coated antigen; antibody 100 nM
T3 construct: also called human MSLN-R2 protein; hMSLN-R2-his; not shown: His tag
T3 sequence (Q13421 other isoform, or with tags, fused parts or gaps): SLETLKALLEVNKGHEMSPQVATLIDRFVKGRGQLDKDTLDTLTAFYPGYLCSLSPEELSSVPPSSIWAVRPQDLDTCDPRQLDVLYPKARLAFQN

[4] = target: T1, human MSLN-FL-his protein; experiment: ELISA, coated antigen; antibody 0.001 nM
Experimental: (§1) The plate was sealed with a plastic film and incubated at 4° C. overnight. The next day, the plate was washed twice with PBST, and a blocking buffer [PBS+2% (w/w) BSA] was added for blocking at room temperature for 2 h. The blocking buffer was discarded, and a chimeric antibody or negative control antibody serially diluted from 100 nM was added at 50 μL/well. After incubation at 37° C. for 2 h, the plate was washed 3 times with PBST. […] After incubation at 37° C. for 2 h, the plate was washed 5 times with PBST. A TMB substrate was added at 50 μL/well for incubation at room temperature for 5-10 min, and then a stop solution (1.0 N HCl) was added at 50 μL/well.

[5] = target: T3, human MSLN-R2-his protein; experiment: ELISA, coated antigen; antibody 0.0001 nM
Experimental: as §1

[6] = target: T2, human MSLN-R1-his protein; experiment: ELISA, coated antigen; antibody 0.0001 nM
Experimental: as §1

[7] = target: T1, human MSLN-FL-his protein; experiment: ELISA, coated antigen; antibody 0.0001 nM
Experimental: as §1

[8] = target: T1, human MSLN-FL-his protein; experiment: ELISA, coated antigen; no antibody (blank, column 'none')
Experimental: as §1

[9] = target: T2, human MSLN-R1-his protein; experiment: ELISA, coated antigen; antibody 0.01 nM
Experimental: as §1

[10] = target: T2, human MSLN-R1-his protein; experiment: ELISA, coated antigen; no antibody (blank, column 'none')
Experimental: as §1

[11] = target: T1, human MSLN-FL-his protein; experiment: ELISA, coated antigen; antibody 10 nM
Experimental: as §1

[12] = target: T3, human MSLN-R2-his protein; experiment: ELISA, coated antigen; no antibody (blank, column 'none')
Experimental: as §1

[13] = target: T3, human MSLN-R2-his protein; experiment: ELISA, coated antigen; antibody 10 nM
Experimental: as §1

[14] = target: T1, human MSLN-FL-his protein; experiment: ELISA, coated antigen; antibody 1 nM
Experimental: as §1

[15] = target: T1, human MSLN-FL-his protein; experiment: ELISA, coated antigen; antibody 0.01 nM
Experimental: as §1

[16] = target: T3, human MSLN-R2-his protein; experiment: ELISA, coated antigen; antibody 0.1 nM
Experimental: as §1

[17] = target: T1, human MSLN-FL-his protein; experiment: ELISA, coated antigen; antibody 100 nM
Experimental: as §1

[18] = target: T3, human MSLN-R2-his protein; experiment: ELISA, coated antigen; antibody 1 nM
Experimental: as §1

[19] = target: T2, human MSLN-R1-his protein; experiment: ELISA, coated antigen; antibody 0.1 nM
Experimental: as §1

[20] = target: T3, human MSLN-R2-his protein; experiment: ELISA, coated antigen; antibody 0.001 nM
Experimental: as §1

[21] = target: T2, human MSLN-R1-his protein; experiment: ELISA, coated antigen; antibody 100 nM
Experimental: as §1

[22] = target: T2, human MSLN-R1-his protein; experiment: ELISA, coated antigen; antibody 1 nM
Experimental: as §1

[23] = target: T3, human MSLN-R2-his protein; experiment: ELISA, coated antigen; antibody 0.01 nM
Experimental: as §1

[24] = target: T2, human MSLN-R1-his protein; experiment: ELISA, coated antigen; antibody 0.001 nM
Experimental: as §1

[25] = target: T4, human MSLN-R3-3 polypeptide (human); experiment: ELISA, coated antigen, antibody 0.01 nM
T4 construct: Part of region R3 of human MSLN; also called hMSLN-R3-3; human MSLN-R3-3 protein
Experimental: as §1

[26] = target: T4, human MSLN-R3-3 polypeptide; experiment: ELISA, coated antigen, antibody 100 nM
Experimental: as §1

[27] = target: T5, human MSLN-R3-his protein (human, UniProt Q13421 487-598); experiment: ELISA, coated antigen, antibody 0.01 nM
T5 construct: Made in HEK293E cells, purified on nickel column; also called hMSLN-R3-his; human MSLN-R3 protein; not shown: His tag
T5 sequence (Q13421 495-606): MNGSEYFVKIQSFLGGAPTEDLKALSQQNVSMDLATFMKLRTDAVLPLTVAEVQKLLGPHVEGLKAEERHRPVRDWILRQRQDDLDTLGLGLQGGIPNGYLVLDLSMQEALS

[28] = target: T5, human MSLN-R3-his protein; experiment: ELISA, coated antigen, antibody 0.0001 nM
[29] = target: T4, human MSLN-R3-3 polypeptide; experiment: ELISA, coated antigen, antibody 0.0001 nM
Experimental: as §1

[30] = target: T4, human MSLN-R3-3 polypeptide; experiment: ELISA, coated antigen, antibody 10 nM
Experimental: as §1

[31] = target: T5, human MSLN-R3-his protein; experiment: ELISA, coated antigen, antibody 10 nM
Experimental: as §1

[32] = target: T5, human MSLN-R3-his protein; experiment: ELISA, coated antigen, antibody 0.001 nM
Experimental: as §1

[33] = target: T4, human MSLN-R3-3 polypeptide; experiment: ELISA, coated antigen, antibody 0.1 nM
Experimental: as §1

[34] = target: T5, human MSLN-R3-his protein; experiment: ELISA, coated antigen, antibody 0.1 nM
Experimental: as §1

[35] = target: T5, human MSLN-R3-his protein; experiment: ELISA, coated antigen, no antibody (blank)
Experimental: as §1

[36] = target: T4, human MSLN-R3-3 polypeptide; experiment: ELISA, coated antigen, antibody 1 nM
Experimental: as §1

[37] = target: T5, human MSLN-R3-his protein; experiment: ELISA, coated antigen, antibody 1 nM
Experimental: as §1

[38] = target: T4, human MSLN-R3-3 polypeptide; experiment: ELISA, coated antigen, no antibody (blank)
[39] = target: T5, human MSLN-R3-his protein; experiment: ELISA, coated antigen, antibody 100 nM
Experimental: as §1

[40] = target: T4, human MSLN-R3-3 polypeptide; experiment: ELISA, coated antigen, antibody 0.001 nM
Experimental: as §1

T1 sequence (Q13421 other isoform, or with tags, fused parts or gaps): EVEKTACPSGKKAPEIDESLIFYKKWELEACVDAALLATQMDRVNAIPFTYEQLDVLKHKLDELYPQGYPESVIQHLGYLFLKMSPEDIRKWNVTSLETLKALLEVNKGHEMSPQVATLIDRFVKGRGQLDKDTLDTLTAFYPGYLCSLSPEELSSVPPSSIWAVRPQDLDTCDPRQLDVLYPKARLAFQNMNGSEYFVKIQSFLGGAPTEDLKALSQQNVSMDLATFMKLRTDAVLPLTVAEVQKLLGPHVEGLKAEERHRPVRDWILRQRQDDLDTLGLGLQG

B1: S009-F4-94.15 (antibody, human IgG1, kappa, V domains shown)
VH: QVQLHQPGAELVRPGSSVKLSCKASGYTFTSYWVHWVQQRPRQGLEWIGNIDPSDSEIHYNQKFKDKATLTVDKSSSTAYIHLSRLTSEDSAIYYCVRGGVPWFAYWGQGTLVTVSA
VL: QIVLTQSPAIMSASPGEKVTLTCSASSSVSSTYLYWFQQKPGSSPKVWIYSTSNLASGVPARFSGSGSGTSYSLTISSMEAEDAASYFCHQWISYPYTFGGGTKLEIKR
notes: Human-murine chimeric antibody, human IgG1/kappa constant regions
OD450 [1]: 1.57 OD450
OD450 [2]: 0.06 OD450
OD450 [3]: 0.07 OD450
OD450 [4]: 0.13 OD450
OD450 [5]: 0.06 OD450
OD450 [6]: 0.05 OD450
OD450 [7]: 0.06 OD450
OD450 [8]: 0.06 OD450
OD450 [9]: 0.05 OD450
OD450 [10]: 0.07 OD450
OD450 [11]: 1.84 OD450
OD450 [12]: 0.07 OD450
OD450 [13]: 0.06 OD450
OD450 [14]: 1.79 OD450
OD450 [15]: 0.57 OD450
OD450 [16]: 0.05 OD450
OD450 [17]: 1.9 OD450
OD450 [18]: 0.05 OD450
OD450 [19]: 0.05 OD450
OD450 [20]: 0.05 OD450
OD450 [21]: 0.07 OD450
OD450 [22]: 0.05 OD450
OD450 [23]: 0.05 OD450
OD450 [24]: 0.05 OD450

B2: S009-F4-94.15 chimeric antibody (antibody, human IgG1, kappa, V domains shown)
VH: B1 VH
VL: B1 VL
notes: Human-murine chimeric antibody: murine VH/VL on human IgG1 heavy and kappa light constant regions
OD450 [25]: 0.05
OD450 [26]: 0.09
OD450 [27]: 0.07
OD450 [28]: 0.05
OD450 [29]: 0.06
OD450 [30]: 0.06
OD450 [31]: 0.07
OD450 [32]: 0.05
OD450 [33]: 0.05
OD450 [34]: 0.17
OD450 [35]: 0.07
OD450 [36]: 0.05
OD450 [37]: 0.11
OD450 [38]: 0.07
OD450 [39]: 0.1
OD450 [40]: 0.05

B3: S009-F4-127.10 chimeric antibody (antibody, human IgG1, kappa, V domains shown)
VH: EVQLQQSGPVLVKPGASVKMSCKASGYTFTDYYMNWVKQSHGKSPEWIGVINPYNDVISYNQKFKGKATLTVDKSSSTAYMELNSLTSEDSAVYYCANYGSSYYAMDYWGQGTSVTVSS
VL: DVVMTQTPLSLSVSLGDQASISCRSSQSLVHSNGNTYLQWSLQKPGQSPNLLIYKVSNRFSGVPDRFSGSGSGTDFTLKISRVEAEDLGVYFCSQTTHVPFTFGGGTKLEIRR
notes: as for B1
OD450 [25]: 0.05
OD450 [26]: 0.14
OD450 [27]: 0.41
OD450 [28]: 0.06
OD450 [29]: 0.06
OD450 [30]: 0.06
OD450 [31]: 1.93
OD450 [32]: 0.09
OD450 [33]: 0.05
OD450 [34]: 1.31
OD450 [35]: 0.07
OD450 [36]: 0.05
OD450 [37]: 1.82
OD450 [38]: 0.07
OD450 [39]: 2.1
OD450 [40]: 0.05

B4: S009-F5-9.16 chimeric antibody (antibody, human IgG1, kappa, V domains shown)
VH: EVQLRQSGPVLVKPGASVKMSCKASGYTFTDYFMNWVKPSHGKSLEWIGVINPSNGVINYNQRFKGKATLTVDKSSSTAYMELNSLTSEDSAVYYCARSYDFAWFAYWGQGTLVTVSA
VL: DVLMTQTPLSLPVSLGDQASISCRSSQNIVHSNGNTYLEWYLQKPGQSPKLLIYTVSNRFSGVPDRFSGSGSGTDFTLKISRVEAEDLGVYYCFQGSHVPYTFGGGTKLEIKR
notes: as for B1
OD450 [25]: 0.04
OD450 [26]: 1.99
OD450 [27]: 1.11
OD450 [28]: 0.12
OD450 [29]: 0.05
OD450 [30]: 0.67
OD450 [31]: 2.36
OD450 [32]: 0.26
OD450 [33]: 0.05
OD450 [34]: 1.82
OD450 [35]: 0.05
OD450 [36]: 0.13
OD450 [37]: 2.32
OD450 [38]: 0.05
OD450 [39]: 2.28
OD450 [40]: 0.04

B5: S009-F6-76.1 chimeric antibody (antibody, human IgG1, kappa, V domains shown)
VH: QVQLQQSGPELVKPGASVKISCKASGYTFTDYYINWVKQRPGQGLEWIGWIFPGRGSTFYYEKFKGKATLTVDKSSSTAYMLLSSLTSEDSAVYFCARRGDSAGYEDLDYWGQGTSVTVSS
VL: NIVMTQSPKFMSMSVGERVTLSCKASENVVTYVSWYQQKPKQSPKLLIYGASKRYTGVPDRFTGSGSATDFTLTISSVQAEDLGDYHCGQSYSYPYTFGGGTKLEIKR
notes: as for B1
OD450 [25]: 0.05
OD450 [26]: 0.07
OD450 [27]: 0.04
OD450 [28]: 0.04
OD450 [29]: 0.05
OD450 [30]: 0.04
OD450 [31]: 0.05
OD450 [32]: 0.05
OD450 [33]: 0.05
OD450 [34]: 0.04
OD450 [35]: 0.05
OD450 [36]: 0.04
OD450 [37]: 0.04
OD450 [38]: 0.04
OD450 [39]: 0.08
OD450 [40]: 0.04

B6: S009-F6-62.5 chimeric antibody (antibody, human IgG1, kappa, V domains shown)
VH: QVQLQQPGTELVKPGASVKLSCRASGYTFTAYWMHWVKQRPGQGLEWIGNINPSNGGTDFNEKFKSKATLTVDKSSSTAYMQLSSLTSEDSAVYYCARGRGYFDVWGTGTTVTVSS
VL: DILLTQSPAILSVSPGERVSFSCRASKNIGTSIHWYQQRTNGSPRLLIKYASESISGIPSRFSGSGSGTDFTLNINSVESEDIADYYCQQSNSWPTLTFGAGTKLELKR
notes: as for B1
OD450 [25]: 0.04
OD450 [26]: 0.09
OD450 [29]: 0.04
OD450 [30]: 0.05
OD450 [33]: 0.04
OD450 [36]: 0.05
OD450 [38]: 0.05
OD450 [40]: 0.04
